B1: L1-38: SU-responsive TetR(B) variant, library L1 hit (protein)
chain: MGSRLDKSKVINSALELLNEVGIEGLTTRKLAQKLGVEQPTLYWHVKNKRALLDALAIEMADRHHTHFCPLEGESWQDFLRNNAKSMRCALLSHRDGAKVWLGTAWTEKQYETTENMLAFLCQQGFSLENALYAWRAVTMFTLGCVLRDQEWQVAKEERETPTTDSMPPLLRQALELGDHQGAEPAFLFGLELIICGLEKQLKCESGS
modifications: Sulfonylurea responsive repressor L1-38
B2: L1-2: SU-responsive TetR(B) ligand binding domain variant, library L1 hit, SEQ ID NO: 3 (protein)
chain: MGSRLDKSKVINSALELLNEVGIEGLTTRKLAQKLGVEQPTLYWHVKNKRALLDALAIEMLDRHATHFCPLEGESWQDFLRNNAKSFRCALLSHRDGAKVCLGTAVTEKQYETMENILAFLCQQGFSLENALYARRAVIAFTLGCVLWDQEYQVAKEERETPTTDSMPPLLRQARELIDHQGAEPAFLFGLELIICGLEKQLKCESGS
modifications: Sulfonylurea responsive repressor L1-02
B3: L1-7: SU-responsive TetR(B) variant, library L1 hit, SEQ ID NO: 4 (protein)
chain: MGSRLDKSKVINSALELLNEVGIEGLTTRKLAQKLGVEQPTLYWHVKNKRALLDALAIEMLDRHNTHFCPLEGESWQDFLRNNAKSWRCALLSHRDGAKVVLGTAITEKQYETHENPLAFLCQQGFSLENALYAIAAVRRFTLGCVLVDQERQVAKEERETPTTDSMPPLLRQASELQDHQGAEPAFLFGLELIICGLEKQLKCERGS
modifications: Sulfonylurea responsive repressor L1-07
B4: L1-20: SU-responsive TetR(B) variant, library L1 hit, SEQ ID NO: 6 (protein)
chain: MGSRLDKSKVINSALELLNEVGIEGLTTRKLAQKLGVEQPTLYWHVKNKRALLDALAIEMMDRHQTHFCPLEGESWQDFLRNNAKSMRCALLSHRDGAKVFLGTAWTEKQYETVENLLAFLCQQGFSLENALYALNAVATFTLGCVLWDQEKQVAKEERETPTTDSMPPLLRQAHELGDHQGAEPAFLFGLELIICGLEKQLKSESGS
modifications: Sulfonylurea responsive repressor L1-20
B5: L1-36: library L1 hit with reverse repressor activity (SEQ ID NO: 1206-1213) (protein)
chain: MGSRLDKSKVINSALELLNEVGIEGLTTRKLAQKLGVEQPTLYWHVKNKRALLDALAIEMADRHHTHFCPLEGESWQDFLRNAAKSMRCALLSHRDGAKVRLGTAWTEKQYETHENVLAFLCQQGFSLENALYALKAVSGFTLGCVLKDQEMQVAKEERETPTTDSMPPLLRQATELVDHQGAEPAFLFGLELIICGLEKQLKCESGS
modifications: rSuR L1-36
B6: L1-39: library L1 hit with reverse repressor activity (SEQ ID NO: 1206-1213) (protein)
chain: MGSRLDKSKVINSALELLNEVGIEGLTTRKLAQKLGVEQPTLYWHVKNKRALLDALAIEMMDRHQTHFCPLEGESWQDFLRNTAKSYRCALLSHRDGAKVILGTRWTEKQYETRENVLAFLCQQGFSLENALYAWAAVGPFTLGCVLRDQERQVAKEERETPTTDSMPPLLRQALELMDHQGAEPAFLFGLELIICGLEKQLKCESGS
modifications: rSuR L1-39
B7: L1-41: library L1 hit with reverse repressor activity (SEQ ID NO: 1206-1213) (protein)
chain: MGSRLDKSKVINSALELLNEVGIEGLTTRKLAQKLGVEQPTLYWHVKNKRALLDALAIEMLDRNQTHFCPLEGESWQDFLRNNAKSWRCALLSHRDGAKVMLGTRNTEKQYETAENGLAFLCQQGFSLENALYACRAVWTFTLGCVLDDQETQVAKEERETPTSDSMPPLLRQAMELKDHQGAEPAFLFGLELIICGLEKQLKCESGS
modifications: rSuR L1-41

Each molecule was assayed on lacZ under control of the tetA promoter (PtetA) in E. coli KM3. Details: Table 4; chlorimuron 20 ppm; 48 hrs at 30° C.
Format: cell-based
In the case of B1, the “relative β-galactosidase activity, inducer Ci” value is reported as 15.3. In the case of B2, the “relative β-galactosidase activity, inducer Ci” value is reported as 13.6. In the case of B3, the “relative β-galactosidase activity, inducer Ci” value is reported as 16.5. B4 was tested, and the “relative β-galactosidase activity, inducer Ci” value was 13.5.

Same assay, conditions: Table 4; chlorsulfuron 20 ppm; 48 hrs at 30° C.
B1 was tested, and the “relative β-galactosidase activity, inducer Cs” value was 14.0. In the case of B2, the “relative β-galactosidase activity, inducer Cs” value is reported as 4.1. In the case of B3, the “relative β-galactosidase activity, inducer Cs” value is reported as 3.1. B4 was tested, and the “relative β-galactosidase activity, inducer Cs” value was 22.0.

Same assay, conditions: Table 4; ethametsulfuron 20 ppm; 48 hrs at 30° C.
B1 was tested, and the “relative β-galactosidase activity, inducer Es” value was 14.8. For B2, the “relative β-galactosidase activity, inducer Es” value was 5.8. For B3, the “relative β-galactosidase activity, inducer Es” value was 0.1. In the case of B4, the “relative β-galactosidase activity, inducer Es” value is reported as 15.0.

Same assay, conditions: Table 4; metsulfuron 20 ppm; 48 hrs at 30° C.
With B1 the “relative β-galactosidase activity, inducer Ms” value was 14.7. B2 was tested, and the “relative β-galactosidase activity, inducer Ms” value was 1.9. For B3, the “relative β-galactosidase activity, inducer Ms” value was 0.2. With B4 the “relative β-galactosidase activity, inducer Ms” value was 12.4.

Same assay, conditions: Table 4; nicosulfuron 20 ppm; 48 hrs at 30° C.
B1 was tested, and the “relative β-galactosidase activity, inducer Ns” value was 8.7. B2 was tested, and the “relative β-galactosidase activity, inducer Ns” value was 1.3. In the case of B3, the “relative β-galactosidase activity, inducer Ns” value is reported as 0.1. B4 was tested, and the “relative β-galactosidase activity, inducer Ns” value was 1.6.

Same assay, conditions: Table 4; rimsulfuron 20 ppm; 48 hrs at 30° C.
For B1, the “relative β-galactosidase activity, inducer Rs” value was 9.5. With B2 the “relative β-galactosidase activity, inducer Rs” value was 1.3. B3 was tested, and the “relative β-galactosidase activity, inducer Rs” value was 0.2. For B4, the “relative β-galactosidase activity, inducer Rs” value was 2.0.

Same assay, conditions: Table 4; sulfometuron 20 ppm; 48 hrs at 30° C.
B1 was tested, and the “relative β-galactosidase activity, inducer Sm” value was 18.3. For B2, the “relative β-galactosidase activity, inducer Sm” value was 4.7. B3 was tested, and the “relative β-galactosidase activity, inducer Sm” value was 6.4. In the case of B4, the “relative β-galactosidase activity, inducer Sm” value is reported as 6.0.

Same assay, conditions: Table 4; thifensulfuron 20 ppm; 48 hrs at 30° C.
For B1, the “relative β-galactosidase activity, inducer Ts” value was 16.7. With B2 the “relative β-galactosidase activity, inducer Ts” value was 1.6. With B3 the “relative β-galactosidase activity, inducer Ts” value was 0.1. With B4 the “relative β-galactosidase activity, inducer Ts” value was 2.6.

Same assay, conditions: Table 4; tribenuron 20 ppm; 48 hrs at 30° C.
For B1, the “relative β-galactosidase activity, inducer Tb” value was 15.8. In the case of B2, the “relative β-galactosidase activity, inducer Tb” value is reported as 1.7. With B3 the “relative β-galactosidase activity, inducer Tb” value was 0.2. For B4, the “relative β-galactosidase activity, inducer Tb” value was 2.6.

Same assay, conditions: Table 6, reverse repressor hits; anhydrotetracycline (0.4 μM)
For B5, the “relative β-galactosidase activity, inducer atc” value was 1.70. With B6 the “relative β-galactosidase activity, inducer atc” value was 4.92. For B7, the “relative β-galactosidase activity, inducer atc” value was 4.21.

Same assay, conditions: Table 6, reverse repressor hits; chlorimuron, same plate assay format (20 ppm)
For B5, the “relative β-galactosidase activity, inducer Ci” value was 0.21. In the case of B6, the “relative β-galactosidase activity, inducer Ci” value is reported as 0.49. With B7 the “relative β-galactosidase activity, inducer Ci” value was 0.39.

Same assay, conditions: Table 6, reverse repressor hits; chlorsulfuron, same plate assay format (20 ppm)
For B5, the “relative β-galactosidase activity, inducer Cs” value was 0.24. For B6, the “relative β-galactosidase activity, inducer Cs” value was 0.89. With B7 the “relative β-galactosidase activity, inducer Cs” value was 0.61.

Same assay, conditions: Table 6, reverse repressor hits; ethametsulfuron, same plate assay format (20 ppm)
In the case of B5, the “relative β-galactosidase activity, inducer Es” value is reported as 0.20. B6 was tested, and the “relative β-galactosidase activity, inducer Es” value was 0.60. B7 was tested, and the “relative β-galactosidase activity, inducer Es” value was 0.18.

Same assay, conditions: Table 6, reverse repressor hits; metsulfuron, same plate assay format (20 ppm)
B5 was tested, and the “relative β-galactosidase activity, inducer Ms” value was 0.38. For B6, the “relative β-galactosidase activity, inducer Ms” value was 0.75. For B7, the “relative β-galactosidase activity, inducer Ms” value was 0.56.

Same assay, conditions: Table 6, reverse repressor hits; nicosulfuron, same plate assay format (20 ppm)
With B5 the “relative β-galactosidase activity, inducer Ns” value was 1.81. With B6 the “relative β-galactosidase activity, inducer Ns” value was 3.03. In the case of B7, the “relative β-galactosidase activity, inducer Ns” value is reported as 2.75.

Same assay, conditions: Table 6, reverse repressor hits; rimsulfuron, same plate assay format (20 ppm)
With B5 the “relative β-galactosidase activity, inducer Rs” value was 1.84. For B6, the “relative β-galactosidase activity, inducer Rs” value was 4.72. With B7 the “relative β-galactosidase activity, inducer Rs” value was 4.05.

Same assay, conditions: Table 6, reverse repressor hits; sulfometuron, same plate assay format (20 ppm)
With B5 the “relative β-galactosidase activity, inducer Sm” value was 0.50. For B6, the “relative β-galactosidase activity, inducer Sm” value was 0.91. In the case of B7, the “relative β-galactosidase activity, inducer Sm” value is reported as 0.67.

Same assay, conditions: Table 6, reverse repressor hits; thifensulfuron, same plate assay format (20 ppm)
B5 was tested, and the “relative β-galactosidase activity, inducer Ts” value was 0.48. In the case of B6, the “relative β-galactosidase activity, inducer Ts” value is reported as 1.42. In the case of B7, the “relative β-galactosidase activity, inducer Ts” value is reported as 1.46.

Same assay, conditions: Table 6, reverse repressor hits; tribenuron, same plate assay format (20 ppm)
In the case of B5, the “relative β-galactosidase activity, inducer Tb” value is reported as 0.57. B6 was tested, and the “relative β-galactosidase activity, inducer Tb” value was 0.97. B7 was tested, and the “relative β-galactosidase activity, inducer Tb” value was 1.41.

Reference: patent publication US9206432B2, “Sulfonylurea-responsive repressor proteins” (priority 2008, dated 2015)
